Among the data in patent US20030082683A1 are percent block of hIK1 current values, retold here.

This test concerns the target hIK1 intermediate conductance, calcium-activated potassium channel (human) (UniProt O15554). As to the kind of experiment: cell-based or functional assay.

Chain of iberiotoxin (P24663 whole entry): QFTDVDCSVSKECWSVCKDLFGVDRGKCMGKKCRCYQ
Chain of hIK1 intermediate conductance, calcium-activated potassium channel (human) (O15554 other isoform, or with tags, fused parts or gaps): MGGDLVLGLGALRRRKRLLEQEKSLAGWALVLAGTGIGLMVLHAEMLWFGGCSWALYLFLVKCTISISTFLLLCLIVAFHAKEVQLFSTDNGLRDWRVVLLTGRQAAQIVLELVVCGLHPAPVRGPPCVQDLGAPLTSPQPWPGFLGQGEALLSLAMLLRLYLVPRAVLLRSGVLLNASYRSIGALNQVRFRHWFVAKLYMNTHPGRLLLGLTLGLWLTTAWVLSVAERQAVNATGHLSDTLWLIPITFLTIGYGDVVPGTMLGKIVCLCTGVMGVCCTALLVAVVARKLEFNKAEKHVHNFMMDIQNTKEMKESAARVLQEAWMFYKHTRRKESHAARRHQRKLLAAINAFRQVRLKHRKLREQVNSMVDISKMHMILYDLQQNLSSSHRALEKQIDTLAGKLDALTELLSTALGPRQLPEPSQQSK

Turning to “iberiotoxin (from UniProt P24663 1-37) (peptide)”, the percent block of hIK1 current at 50 nM IBX is 15%.
